Assay results reported in US12723255B2, “Herbicide tolerance genes and methods of use thereof” (priority 2014, dated 2026).

Assays:
[1] = high-throughput enzyme assay with crude bacterial extract; format: biochemical; details: relative to wild-type RdpA; for Average quizalofop-P activity: average of replicates
Protocol: The high-throughput bacterial protein expression was achieved by synthesizing a recombinant DNA molecule encoding each engineered protein and cloning this into a bacterial expression vector with a C-terminal histidine tag (His-tag) operably linked to the recombinant DNA molecule. The vectors were used to transform Escherichia coli (E. coli), and bacterial expression of the engineered proteins was induced. Overnight E. coli cultures were grown in 96-well plates and the cultures were centrifuged to pellet the bacteria. The bacterial pellets were lysed by adding 100 ul lysis master mix (10 ml of Bacteria Protein Extraction Reagent (B-PER®) II (Pierce Biotechnology, Rockford, IL; cat. no. 78260); 10 ul Lysozyme (10 ug/ml final; Lysozyme American Bioanalytical, Natick, MA; cat. no. AB011780-00005); and 40 ul Benzonase® Nuclease (100 Units/ml final, Novagen, Darmstadt, Germany; cat no 71206-3)) to each well. The plates were vortexed then incubated for 30 minutes at 4° C. 400 ul of MOPS buffer (pH 6.57) was added to cach well and the debris pelleted by centrifugation. The lysate supernatant was carefully removed and used as the crude bacterial extract for subsequent enzymatic analysis.
The high-throughput herbicide degradation enzyme assay was designed to assay the enzymatic activity of the engineered proteins towards various herbicides using crude bacterial extract. The engineered protein's oxygenase activity (that is, its enzymatic activity) was measured by an end point colorimetric assay utilizing detection of phenol products through measurement of absorbance at 510 nm from 4-aminoantipyrine and potassium ferricyanide. This assay was based on the assay described in Fukomori and Hausinger, Journal of Biological Chemistry (1993) 268(32):24311-24317. Enzyme reactions were assayed in 96-well plates in a total volume of 150ul that contained: 20 mM MOPS pH 6.75, 50-200 uM NH4FeSO4, 50-200 uM sodium ascorbate, 1 mM alpha-ketoglutarate (aKG), 10 ul of E. coli cell lysate containing expressed engineered protein, and substrate (either an AOPP herbicide or phenoxy acid herbicide). […] Absorbance measurements were made on a standard laboratory spectrometer. Assays were scaled as needed to enhance throughput. Standard curves were generated using purified protein or product standards.
Using this high-throughput bacterial protein expression and enzyme assay system, activities of approximately 1200 engineered proteins were measured relative to the activity of a selected wild-type protein, RdpA. In a 96 well plate assay, there were 3 controls (crude bacterial extract without an engineered protein) and 3 positive controls (crude bacterial extract with wild-type protein). The absorbance of the wells was measured and the protein activity was calculated using the following formula:
[formula] where, Activityi is the activity of the sample, Absorbancei is the absorbance of the sample, AbsorbanceWT is the absorbance of the wells containing extract from E. coli expressing the wild-type enzyme, and AbsorbancepET is the absorbance of the wells containing extract from E. coli without an engineered protein. Activity for each unique engineered protein was measured in duplicate and was reported as an average of the two measurements.
Using the information learned from the first assays, protein engineering was then done as described previously to produce additional engineered proteins, which were tested as described in this Example 1. The results of the high-throughput enzyme assay with quizalofop-P as the substrate for five of these additional engineered proteins are provided in Table 2.

transgenic maize plants = test: inbred trait efficacy field trials (R2); format: in vivo; details: with or without CTP; quizalofop-P 0.16 lb ai/acre PRE, V4, V8
Protocol: Inbred trait efficacy field trials were conducted to assess tolerance to the AOPP herbicides and sensitivity to the cyclohexanediones (CHD) herbicides in an inbred background. R2 inbred plants were generated by selfing a homozygous transgenic R1 plant and collecting seed. R2 inbred plants containing MON-HT55 with or without a CTP or MON-HT51 with a CTP and were evaluated at two field locations. Herbicide treatment was 2× quizalofop-P at 0.16 lb ai/acre applied PRE (after planting but before emergence) followed by quizalofop-P at 0.16 lb ai/acre applied at V4 growth stage followed by quizalofop-P at 0.16 lb ai/acre applied at V8 growth stage. Plots were rated for crop injury 7-10 days after herbicide application on a scale of 0-100 with zero being no injury and 100 being complete crop death. All data were subjected to analysis of variance and means separated at LSD (0.05). […] To test for sensitivity to CHD herbicides, which is desirable for use in volunteer control, plants were treated with a 1× rate of clethodim (0.25 lb ai/acre) at V8 growth stage. […] The resulting F1 plants containing MON-HT55 (SEQ ID NO:13) with or without a CTP or MON-HT51 (SEQ ID NO: 3) without a CTP were evaluated at six field locations. […] This permitted the engineered protein to be evaluated in maize under high temperature and water stress conditions. […]

| Molecule | Replicate 1 quizalofop-P activity [1] | Replicate 2 quizalofop-P activity [1] | Average quizalofop-P activity [1] | crop injury of inbred plants (transgenic maize plants) | Replicate 3 quizalofop-P activity [1] |
| --- | --- | --- | --- | --- | --- |
| MON-HT55: engineered oxygenase protein, amino acid sequence SEQ ID NO:11 (protein) MHAALSPLSQRFERIAVQPLTGVLGAEITGVDLREPLDDSTWNEILDAFHTYQVIYFPGQAITNEQHIAFSRRFGPVDPVPLLKSIEGYPEVQMIRREANESGRVIGENWHTDSTFLDAPPAAVVMYAKEIPPYGGDTLFTSMYTAWETLSPTMQATIEGLNVVHSATRVFGSLYQAQNRRFSNTSVKVMDVDAGDRETVHPLVVTHPETGRKGLYVNQVYCQRIEGMSEKESEPLLSFLFAHATKPEFTCRVRWQEGDVLVWDNLCTQHYAVPDYAGKFRYLTRTTVGGVRPAR | 118.48 | 99.79 | 109.13 | no injury | – |
| MON-HT51: engineered oxygenase protein, amino acid sequence SEQ ID NO:1 (protein) MHAALSPLSQRFERIAVQPLTGVLGAEITGVDLREPLSDSTWNEILDAFHTYQVIYFPGQAITNEQHIAFSRRFGPVDPVPLLKSIEGYPEVQMIRREANESGRVIGDDWHTDSSFLDAPPAAVVMRAIDVPEHGGDTGFLSMYTAYDALSDGLKKLISGLNVVHSATRVFGSLYQAQNRRFSNTSVKVMDVADGDRETVHPLVVTHPGSGRKGLYVNQVYCQRIEGMSEKESEPLLSFLFAHATKPEFTCRVRWKKDQVLVWDNLCTMHYAINDYHGQTRILHRTTVGGVRPAR | 117.02 | 124.87 | 117.35 | no injury | 110.17 |
